From the supplement of paper PMC10567573
± gives the standard deviation.

Assay: protein stability index of a GFP-peptide fusion (GPS, HEK-293T) (PSI 1-6); higher = more stable
[1] = treatment: DMSO, c terminus: a fixed tail appended
[2] = treatment: MLN4924 1 uM, 8 h, c terminus: a fixed tail appended
[3] = treatment: DMSO, c terminus: native
[4] = treatment: MLN4924 1 uM, 8 h, c terminus: native
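Also: 24-mer peptide tiles fused after GFP, lentivirally expressed, FACS-sorted into six equal bins by GFP/DsRed ratio, decoded by Illumina sequencing, PSI is the read-weighted mean bin number.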

Sequence	protein stability index [1]	protein stability index [2]	protein stability index [3]	protein stability index [4]
GLGLEDADWTQGLPWRFEELLTCS [TEX19]	2.42 ± 0.47	2.76 ± 0.62		
PDEANVGKHPKDKTEDENKQSFLD [TOR1AIP2]	5.42 ± 0.21	5.75 ± 0.2		
ASKSKGAAVKLADFGLAIEVQGDQ [CAMK2D]	4.13 ± 0.37	4.37 ± 0.3		
VPISVTGIAQVKIQGQNKEMLAAA [FLOT1]	3.52 ± 0.27	3.61 ± 0.13		
ERDRDPCGGSGGGGGGGGGGGGCS [LURAP1L]	5.37 ± 0.35	5.4 ± 0.24		
TQSVSECITEDGRTVAVGDIVWGK [PWWP2B]	4.09 ± 0.22	4.25 ± 0.21		
KSCQACRLRKCYEVGMVKCGSRRE [ESR2]	2.35 ± 0.43	3.1 ± 0.33		
GEENFEVVKQFVTGIIDSLTISPK [MATN2]	3.18 ± 0.2	3.32 ± 0.46		
LLCLLHFSIVSVAAHLALLLLCGT [RTN2]	3.19 ± 0.65	3.33 ± 0.3		
SVNDQCGFGVLRLDADAAQRVVYL [TSPAN10]	2.32 ± 0.27	2.28 ± 0.23		
KQAKVVARRESGGRPIKPPKKDLE [BRD3]	5.08 ± 0.27	5.05 ± 0.24		
MVIHIPEEPRPSRPRYKADVPDLQ [KCNK9]	3.02 ± 0.21	3.24 ± 0.18		
SDTTPLPSWAALNSSTWGSLKQAL [SNX8]	2.7 ± 0.2	2.94 ± 0.12		
LVTYTNRYIIFKRNTLNQPCSGSV [GMCL1]	2.29 ± 0.24	2.07 ± 0.2		
MTTLTHRARRTEISKNSEKKMESE [GOLPH3L]	5 ± 0.55	5.07 ± 0.18		
QEKLQVLMAEGLLPAVKVFLDWLR [SMG5]	2.5 ± 0.7	2.57 ± 0.54		
VHYMIHEPEPHILLFRRPLPKKPK [CKS1B]	2.39 ± 0.23	2.57 ± 0.35		
SSCCLHICQGIRGLWGTTLTENTA [PKD2L1]	2.07 ± 0.21	1.97 ± 0.24		
HVDPEEPWSPCSARFITDFLDNGY [ADAMTS4]	2.57 ± 0.39	2.88 ± 0.71		
KNLKIWNVHTGEFRNCGACVTLMQ [WDR88]	2.42 ± 0.86	2.35 ± 0.54		
PVCPTVCPPGGIHQVTVNESLLAP [KRT71]	4.36 ± 0.082	4.16 ± 0.21		
LEDGFYLTAFICFLVFILNAGLVW [MFSD9]	3.23 ± 0.84	2.73 ± 0.95		
VTPRTALLTWTEPPVRPAGYLLSF [TNXB]	2.42 ± 0.29	2.2 ± 0.26		

Sequence	protein stability index [1]	protein stability index [2]	protein stability index [3]	protein stability index [4]
SGKELKIDIIPNPQERTLTLVDTG [HSP90AB1]	3.98 ± 0.42	3.58 ± 0.48		
VHGDPAVWWVSQFVKYLIRPQPWL [FUT8]	2.95 ± 0.34	3.21 ± 0.6		
YFFLYQYCSIHCSDRKQVRNIAN [CSTF3]			3.03 ± 1.1	3.22 ± 0.71
TRILDGGNPFLDVPQALSATTYKH [PSD2]	3.62 ± 0.17	3.73 ± 0.21		
NHTTVTNSTPLRAACFDGRLDIVK [FEM1B]	3.46 ± 0.23	3.4 ± 0.25		
EEDNDDAKILPSPVQGSSEDNLSL [DRICH1]	5.57 ± 0.25	5.55 ± 0.17		
KLEPMETERSPGPRLQELLGPSPQ [ZNF263]	4.43 ± 0.14	4.52 ± 0.17		
SQELPPPDPGPSPEASHLRFRRFR [ZNF263]	4.76 ± 0.21	5.14 ± 0.12		
WLSTAPTEPLTHWYQVRCLFQSPL [CARM1]	2.44 ± 1	2.19 ± 0.4		
GPTSSNPRKRHREDSDVEMVEDDS [MLH1]	5.32 ± 0.13	5.22 ± 0.6		
SLAEVRVGYQSQNISCFFRLVDRD [MYORG]	2.42 ± 0.24	2.45 ± 0.26		
ELIKWRAAIVVNGHGMTPLKVAAE [FEM1B]	2.64 ± 0.55	2.15 ± 0.33		
AIEGIPGSDYVNANYIDGYRKQNA [PTPRD]	4.09 ± 0.24	4.6 ± 0.12		
SLGQLPLPPIPHVFSAGTGSAILP [PLAGL1]	2.82 ± 0.28	3.07 ± 0.22		
SPQSGSILTEETEVKGTLEGDVCG [PBXIP1]	5.59 ± 0.11	5.33 ± 0.35		
EKASWLGEQPQFWSKTQVLDWISY [ELF3]	2.33 ± 0.3	2.16 ± 0.096		
KGLEDTKSPQFNRYFYLLENIAWV [PDS5B]	2.44 ± 0.89	2.31 ± 0.37		
AANEQLTRAILRERICSEEERAKA [CHCHD3]	4.82 ± 0.23	4.97 ± 0.19		
EYQLYEDIGKGAFSVVRRCVKLCT [CAMK2B]	2.45 ± 0.26	2.25 ± 0.36		
SLEISPQNVDVNVHPTKHEVHFLH [MLH1]	3.46 ± 0.23	3.63 ± 0.32		
FNLFCQKRFDESMQVFAKLGTDPT [VPS39]	2.68 ± 0.36	2.68 ± 0.11		
EKEELLQLSIERGKVLQNKQAEIC [CCDC89]	4.44 ± 0.27	4.68 ± 0.17		
FRIILGDFDYNAIDNANRILGPAY [PKD2L1]	2.74 ± 0.55	2.62 ± 0.55		

Sequence	protein stability index [1]	protein stability index [2]	protein stability index [3]	protein stability index [4]
VVHDWLYSYVYQDGLRLLGARARG [SOAT2]	2.46 ± 0.44	2.28 ± 0.25		
DPDEVARRWGKRKNKPKMNYEKLS [ETS1]	4.51 ± 0.24	4.22 ± 0.35		
GLAFFTFPNIASATKFKQLYRSRM [HMOX1]	2.39 ± 0.78	1.98 ± 0.34		
VRQINRKTPVPGKARKKSSCQLL [RAP1B]			4.5 ± 0.27	4.44 ± 0.18
TRIEKRIVITGDADIDHDQALAQA [EPB41L3]	4.48 ± 0.27	4.72 ± 0.25		
RSPSGSLRSARGSRGGTRGWLPSH [RBMY1A1]	3.95 ± 0.18	4.07 ± 0.17		
PEGQELQKLGSGAWDNPAYSGPPS [PKD2L1]	4.53 ± 0.35	4.93 ± 0.36		
FNFVSTPKCSCGQLAAVHLSKSRT [RNF180]	2.14 ± 0.43	2.05 ± 0.26		
QAAKQIKDGVTMAPAFRLSLKAKV [FSD1]	3 ± 0.23	3.02 ± 0.33		
PGEWLELLLEPGSLYILRGSARYD [ALKBH7]	3.2 ± 0.38	3.08 ± 0.51		
YFFKRPYPFVLFYSKFHGLEMCVD [KMT2E]	2.75 ± 1	3.19 ± 0.55		
LLPIVPLSWLVWLLLLLLASLLPS [ADAMTS4]	3.04 ± 0.33	3.17 ± 0.51		
SGTMGAAKVTGEVLDILTRLPESV [FLOT1]	3.64 ± 0.38	3.71 ± 0.24		
DPFVCRLRHLSPTPSEEHMKNKNN [OR4A15]	4.73 ± 0.11	4.66 ± 0.1		
LRITSGVVVCQCGLSIPSHSSELT [RPAIN]	2.56 ± 0.65	2.48 ± 0.57		
EVKGTLEGDVCGVEPPGPGDTVVQ [PBXIP1]	5.48 ± 0.23	5.37 ± 0.11		
LSSTLLSFSTAIGRTCITDLQLTV [MFSD9]	3.11 ± 0.17	3.18 ± 0.39		
HYICPRLGGIGFSSCIVCLFVGLY [SLC6A17]	2.39 ± 0.54	2.3 ± 0.21		
YLRYVRRLDFFEKPDYEYLRTLFT [CSNK1G1]	2.34 ± 0.48	2.24 ± 0.38		
CLLVLRLFLGIHVFLVSCALPDSV [AUP1]	3.22 ± 0.2	3.09 ± 0.05		
YYKPGLLMMCFILPTLVPWYFWGE [SCD]	3.24 ± 0.7	2.83 ± 0.52		
YISETVLAIDAIHQLGFIHRDIKP [STK38L]	2.33 ± 0.74	2.56 ± 0.24		
PPPPPPAQTFLFQGQPVVNRPLSL [TRADD]	3.71 ± 0.4	3.99 ± 0.29		

Sequence	protein stability index [1]	protein stability index [2]	protein stability index [3]	protein stability index [4]
FIAGLCVFIISTLAIDFIDEGRLL [SOAT2]	2.81 ± 0.6	3.01 ± 0.33		
DIDGDVLVFLELAQFHCAYQLADW [RHOBTB2]	2.76 ± 0.47	3.23 ± 0.62		
QQAEKILKSMDKNGTMTIDWNEWR [SLC25A25]	3.36 ± 0.47	3.56 ± 0.39		
RTMLDFPQHVSSDKEVRAASTEAD [NLN]	5.55 ± 0.23	4.74 ± 1.4		
FWDLFRSKDNMRTRIMIGLTLVFF [SLC2A12]	2.53 ± 0.55	2.67 ± 0.39		
WLMTYVGAVFNGITLLILAELLIF [RTN3]	2.49 ± 0.28			
QYKKEPVTTRQVRTIVEEVQDGKV [KRT17]	5 ± 0.22	5.12 ± 0.29		
LAAKALLDQKKQDPRVQDFLQRCL [NET1]	2.28 ± 0.31	2.42 ± 0.25		
TDDQLLALLPSLSHCSQLTTLSFY [PRAME]	2.26 ± 0.37	2.05 ± 0.3		
DISMEIDSPENMMRHIRFLKNEVE [CCDC6]	4.09 ± 0.39	3.86 ± 0.33		
WIIKKHNTNSDPLDPSFPVEFVRH [POMT2]	2.54 ± 0.29	2.39 ± 0.51		
RYLVGEHQADLEVANRHGHTCLMI [FEM1A]	2.19 ± 0.42	2.38 ± 0.24		
VEFVRHGDIIRLEHKETSRNLHSH [POMT2]	3.02 ± 0.27	3.04 ± 0.25		
VIWDFLTRGIAKIISAHIHPVCSL [RBBP5]	3.31 ± 0.46	3.3 ± 0.35		
ILGGSGPVRKLYDDCSSTIVEDPQ [ESRRG]	4.37 ± 0.3	4.41 ± 0.3		
GSELKDSIPVTELSASGPFESHDL [POMP]	5.28 ± 0.34	5.18 ± 0.57		
PESKEPVEKEEEPDPEPPPVTPQV [SMG5]	5.54 ± 0.25	5.46 ± 0.38		
LGHREPSAHPVEVFSFDLHEPLSK [TMEM175]	3.92 ± 0.16	4.17 ± 0.28		
ENDPEWWKCKNARGQVGLVPKNYV [NCK2]	3.52 ± 0.16	3.54 ± 0.12		
DPVELRRLNFQTPGMASHPPIPIL [PTPRD]	2.91 ± 0.19	3.04 ± 0.33		
